Substitutions are numbered along the chain they refer to. Where “and” joins values, the source holds several entries; their conditions need not be identical. Equal values may be shown once.
T1: human Nectin-4 (human, UniProt Q96NY8 32-510)
T1 construct: whole, on cells; Cell-surface target of the FACS, endocytosis and proliferation assays (CHO-huNectin4 S8 cells, BT474 cells); the assay field says which cells; also called huNectin4; PVRL4
T1 sequence (looked up): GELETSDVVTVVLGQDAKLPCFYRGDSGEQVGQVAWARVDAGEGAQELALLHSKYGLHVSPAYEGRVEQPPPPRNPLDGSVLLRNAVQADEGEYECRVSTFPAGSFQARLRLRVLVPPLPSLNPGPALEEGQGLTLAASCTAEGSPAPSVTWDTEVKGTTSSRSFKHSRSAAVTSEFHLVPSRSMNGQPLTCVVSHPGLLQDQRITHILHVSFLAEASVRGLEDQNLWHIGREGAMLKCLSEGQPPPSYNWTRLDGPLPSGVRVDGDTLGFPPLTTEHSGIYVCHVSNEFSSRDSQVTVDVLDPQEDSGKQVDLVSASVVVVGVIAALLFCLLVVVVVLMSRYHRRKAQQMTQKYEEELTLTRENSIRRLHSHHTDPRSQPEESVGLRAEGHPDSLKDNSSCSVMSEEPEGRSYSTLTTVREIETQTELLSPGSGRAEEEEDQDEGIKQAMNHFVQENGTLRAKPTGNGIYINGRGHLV

B1: 42D20 hz10-E (antibody, V domains shown)
VH: QVQLQESGPGLVKPSETLSLTCTVSGFSLIDYGVSWIRQPPGKGLEWIGVIWGDGKIYYNSVLKSRVTISKDNSKSQVSLKLSSVTAADTAVYYCAKQGGLLFYAMDYWGQGTLVTVSS
VL: DIVMTQSPDSLAVSLGERATINCKSSQSLLNSYSQKNYLAWYQQKPGQPPKLLIYFASTRESGVPDRFSGSGSGTDFTLTISSLQAEDVAVYYCQQHYNTPFTFGAGTKLELKR
modifications: vcMMAE conjugated to the TECP-reduced antibody; residues not stated; DAR 4.0±1
B2: 42D20 hz43-E (antibody, V domains shown)
VH: B1 VH with G55A
VL: B1 VL with S32T, P49S, G74E, V89L, Y93F
modifications: vcMMAE conjugated to the TECP-reduced antibody; residues not stated; DAR 4.0±1
B3: 42D20 hz63-E (antibody, V domains shown)
VH: B1 VH with D54G
VL: B1 VL with S32T, P49S, G74E, V89L, Y93F
modifications: vcMMAE conjugated to the TECP-reduced antibody; residues not stated; DAR 4.0±1
B4: 42D20 hz64-E (antibody, V domains shown)
VH: B1 VH with D54G
VL: B1 VL with S32K
modifications: vcMMAE conjugated to the TECP-reduced antibody; residues not stated; DAR 4.0±1
B5: 42D20 hz44-E (antibody, V domains shown)
VH: B1 VH with G55A
VL: B1 VL with S32K
modifications: vcMMAE conjugated to the TECP-reduced antibody; residues not stated; DAR 4.0±1
B6: 20M12 xiIgG-E (antibody, V domains shown)
VH: QVQLQQSGPELVKPGASVRISCKASGYTFTSYYIHWVKQRPGQGLEWIGWIYPGNANNKYNENFKGKATLTADKSSSTAYMQLSSLTSEDSAVYFCARSVYYFDYWGQGTTLTVSS
VL: SVVMTQTPKFLLVSAGDRVTITCKASQSVSNDVAWYQQKPGQSPKLLIYYASNRNTGVPDRFTGSGYGTDFTFNISTVQAEDLAVYFCQQDYSSPYTFGGGTKLEIKR
modifications: vcMMAE conjugated to the TECP-reduced antibody; residues not stated; DAR 4.0±1
B7: 20M12 hz01-E (antibody, human IgG1, kappa, V domains shown)
VH: QVQLVQSGAEVKKPGASVKVSCKASGYTFTSYYIHWVRQAPGQRLEWMGWIYPGNANNKYNENFKGRVTITRDTSASTAYMELSSLRSEDTAVYYCARSVYYFDYWGQGTLVTVSS
VL: EVVMTQSPATLSVSPGERATLSCKASQSVSNDVAWYQQKPGQAPRLLIYYASNRNTGIPARFSGSGSGTEFTLTISSLQSEDLAVYFCQQDYSSPYTFGGGTKVEIKR
modifications: vcMMAE conjugated to the TECP-reduced antibody; residues not stated; DAR 4.0±1
B8: 20M12 hz11-E (antibody, human IgG1, kappa, V domains shown)
VH: B7 VH with R72A, T74K
VL: B7 VL
modifications: vcMMAE conjugated to the TECP-reduced antibody; residues not stated; DAR 4.0±1
B9: Enfortumab-E (antibody, human IgG1, kappa, V domains shown)
VH: EVQLVESGGGLVQPGGSLRLSCAASGFTFSSYNMNWVRQAPGKGLEWVSYISSSSSTIYYADSVKGRFTISRDNAKNSLSLQMNSLRDEDTAVYYCARAYYYGMDVWGQGTTVTVSS
VL: DIQMTQSPSSVSASVGDRVTITCRASQGISGWLAWYQQKPGKAPKFLIYAASTLQSGVPSRFSGSGSGTDFTLTISSLQPEDFATYYCQQANSFPPTFGGGTKVEIKR
modifications: vcMMAE conjugated to the TECP-reduced antibody; residues not stated; DAR 4.0±1
B10: mIgG 5M21-E (antibody, V domains shown)
VH: B6 VH with S21T, S31T, A56V, N58T, N63K, S99G, V100L
VL: SIVMTQTPKFLLVSAGDRLTITCKASQSVSNDVAWYQQKPGQSPKLLIYYASNRYTGVPDRFTGSGYGTDFTFTISTVQAEDLAVYFCQQDYSSPYTFGGGTKLEIK
B11: mIgG 42D20-E (antibody, V domains shown)
VH: QVQLKESGPGLVAPSQSLSISCTVSGFSLIDYGVSWIRQPPGKGLEWLGVIWGDGKIYYNSVLKSRLSISKDNSKSQVFLKMNSLQTDDTAMYYCAKQGGLLFYAMDYWGQGTSVTVSS
VL: DIVMTQSPSSLAMSVGQRVTMNCKSSQSLLNSYSQKNYLAWYQQKPGQSPKLLIYFASTRESGVPDRFIGSGSETDFTLTISSVQAEDLADYFCQQHYNTPFTFGSGTKLEIK
B12: 5M21 hz11-E (antibody, human IgG1, kappa, V domains shown)
VH: B7 VH with S31T, A56V, N58T, N63K, R72A, T74K, S99G, V100L
VL: DIQMTQSPSSLSASVGDRVTITCKASQSVSNDVAWYQQKPGKVPKLLIYYASNRYTGVPSRFSGSGSGTDFTLTISSLQPEDLATYFCQQDYSSPYTFGGGTKVEIKR
modifications: vcMMAE conjugated to the TECP-reduced antibody; residues not stated; DAR 4.0±1
B13: 5M21 hz10-E (antibody, human IgG1, kappa, V domains shown)
VH: B7 VH with S31T, A56V, N58T, N63K, R72A, T74K, S99G, V100L
VL: B12 VL with L83V, F87Y
modifications: vcMMAE conjugated to the TECP-reduced antibody; residues not stated; DAR 4.0±1
B14: 42D20 hz00 (antibody, V domains shown)
VH: B1 VH with K71V, N73T, S76N, V78F, K97R
VL: B1 VL
notes: Humanized
B15: 42D20 hz21 (antibody, V domains shown)
VH: B1 VH with D54E
VL: B1 VL with P49S, G74E, V89L, Y93F
notes: Humanized
B16: 42D20 hz20 (antibody, V domains shown)
VH: B1 VH with D54E
VL: B1 VL
B17: 42D20 hz03 (antibody, V domains shown)
VH: B1 VH with K71V, N73T, S76N, V78F, K97R
VL: B1 VL with S32T, P49S, G74E, V89L, Y93F
notes: Humanized
B18: 42D20 hz01 (antibody, V domains shown)
VH: B1 VH with K71V, N73T, S76N, V78F, K97R
VL: B1 VL with P49S, G74E, V89L, Y93F
notes: Humanized
B19: 42D20 hz23 (antibody, V domains shown)
VH: B1 VH with D54E
VL: B1 VL with S32T, P49S, G74E, V89L, Y93F
notes: Humanized
B20: 42D20 hz02 (antibody, V domains shown)
VH: B1 VH with K71V, N73T, S76N, V78F, K97R
VL: B1 VL with N31Y, P49S, G74E, V89L, Y93F
notes: Humanized

Target: T1, human Nectin-4
Assay: FACS on BT474 cells
Description: (§1) The solutions of different concentrations were added to 384-well plates, 10 µl per well.
(§2) BT474 cells (breast cancer cells) expressing Nectin-4 on the cell surface were collected by centrifugation at 100 g at room temperature for 5 minutes, and then the cells were washed with PBS containing 0.5% BSA once and were centrifuged at 100 g at room temperature for 5 minutes. […] After incubation at 4° C. for 1 hour, fluorescently labeled goat anti-human IgG secondary antibody was added. After continued incubation at 4° C. for 1 hour, mean fluorescence readings of the cell populations were analyzed by a flow cytometer.

Binder	EC50
B1	307 ng/mL
B2	430 ng/mL
B3	299 ng/mL
B4	373 ng/mL
B5	504 ng/mL
B6	227 ng/mL
B7	420 ng/mL
B8	232 ng/mL
B9	230 ng/mL

Target: T1, human Nectin-4
Assay: cell-based or functional assay

Binder	EC50 (ng/ml), inhibition of proliferation of BT474 cells	Percentage of cell killing at the highest concentration
B1	2.61 ng/mL	33.7%
B10	3.21 ng/mL	36%
B11	4.64 ng/mL	33.5%
B12		38.5%
B13	21.1 ng/mL	29.4%
B9	5.37 ng/mL and 3.95 ng/mL and 5.11 ng/mL and 5.3 ng/mL	

Target: T1, human Nectin-4
Assay: cell-based or functional assay
Remark: another data set of the same source

Binder	Endocytosis efficiency (%)
B1	74%
B2	68.9%
B3	67.9%
B4	66.6%
B5	71.1%
B6	67%
B7	56.6%
B8	58.4%
B9	58.9%

Target: T1, human Nectin-4
Assay: cell-based or functional assay
Remark: another data set of the same source

Binder	EC50 (ng/ml), inhibition of proliferation of BT474 cells	Percentage of cell killing at the highest concentration
B1	9.41 ng/mL	40.8%
B2	6.31 ng/mL	42.5%
B3	2.42 ng/mL	47%
B4	4.58 ng/mL	40.9%
B5	3.61 ng/mL	42.7%
B6	14.8 ng/mL	41.4%
B7	24.2 ng/mL	32.2%
B8	31.6 ng/mL	38.3%
B9	2.26 ng/mL and 3.86 ng/mL and 2.91 ng/mL and 3.17 ng/mL	

Target: T1, human Nectin-4
Assay: cell-based or functional assay
Remark: another data set of the same source

Binder	Endocytosis efficiency (%)
B14	39.1%
B15	43.9%
B16	42%
B17	41.1%
B18	41.5%
B19	45%

Target: T1, human Nectin-4
Assay: FACS on BT474 cells
Remark: another data set of the same source
Description: as §1, §2
The experiment results of the binding of engineered humanized molecules of the present disclosure to BT474 cells by FACS assay are shown in panels 3B and 3C in FIG. 3 and Tables 6 and 7.

Binder	EC50
B14	1340 ng/mL
B15	285 ng/mL
B20	112 ng/mL
B17	67.6 ng/mL
B18	132 ng/mL
B19	50.3 ng/mL
